From patent US20250179176A1, “ANTI-TIGIT ANTIBODIES AND USES OF THE SAME” (ARCUS BIOSCIENCES, INC., priority 2022, published 2025)
Entries after “also recorded” stand apart in the source; their conditions may differ.

Assays:
[1] = test system: metastatic (Stage IV) squamous or non-squamous NSCLC; assay: Phase 2 study in front-line NSCLC (ARC-7), efficacy; type: in vivo, human
Description: Participants were randomized 1:1:1 across the three study arms and treated until disease progression or loss of clinical benefit. […] Patients in the zimberelimab monotherapy arm with confirmed progression had the option to cross over to the triplet arm. Co-primary endpoints were objective response rate (ORR) and progression-free survival (PFS). Secondary endpoints included safety, duration of response and disease control rates. Additional assessments of response/on-treatment effects may include measures of immune cell activation, immune cell suppression, immune cell proliferation, T cell receptor dynamics, and/or increases in memory and antigen experienced T cells in periphery or tumor microenvironment, as well as molecular response assessment by ctDNA dynamics and/or changes in tumor cell markers or gene expression.
Further data were obtained from an interim analysis with a data cutoff of Aug. 31, 2022.

[2] = molecular target: human FcγR1 (Homo sapiens, UniProt P12314); assay: ELISA binding of domvanalimab to FcγR; details: up to 1 μM, vs human IgG1 control
Procedure: Antibody-dependent cell mediated cytotoxicity (ADCC) is mediated by the antibody Fc domain binding to a FcγR. […] Human IgG1 was used as a positive control and buffer containing no antibody was used as a negative control.
Briefly, ELISA plate coating solution was prepared by diluting human Fc-gamma receptors in PBS to a final concentration of 1 μg/mL (FcγR1) or 4 μg/mL (Fcγ R2A, 2B, 3A and 3B). 30 μL of coating solution was added to each well of the test plates, and the ELISA plates were then incubated overnight at 4° C. to facilitate receptor binding. The following day, ELISA plates were washed four times with 80 μL wash buffer (1×PBS+0.05% Tween-20) per well, prior to blocking with 80 μL blocking buffer (1×PBS+2% BSA) per well at room temperature for 2 hours.
Plates were then incubated for an hour prior to removal of well contents by aspiration followed by four washes with wash buffer. 30 μL of anti-human IgG HRP conjugate at 1:2500 dilution in antibody buffer was added to each of the washed wells. Plates were further incubated at room temperature for an additional 30 minutes. […] Luminescent signals were captured using an Envision Multimode Reader (Perkin Elmer) system approximately 10 minutes after substrate addition.

[3] = Population PK model and simulations; set-up: species or system human
Procedure: All available PK data from this study were combined in a population PK model. […] The population PK model confirmed that the PK of domvanalimab was dose-linear over the dose range and consistent across the dosing regimens.
Simulations were run with the model of n=500 patients each at 10 mg/kg Q2W, 15 mg/kg Q3W, and 20 mg/kg Q4W dosing regimens for 24 weeks.

[4] = molecular target: T1, TIGIT (Homo sapiens, UniProt Q495A1); assay: TIGIT receptor occupancy (RO) assay in whole blood by flow cytometry; type: in vivo
T1 construct: select peripheral lymphocyte populations in whole blood collected from patients enrolled in a clinical study; endogenous in cells; host or cells: peripheral lymphocytes in whole blood of dosed patients
T1 sequence (Q495A1 22-244): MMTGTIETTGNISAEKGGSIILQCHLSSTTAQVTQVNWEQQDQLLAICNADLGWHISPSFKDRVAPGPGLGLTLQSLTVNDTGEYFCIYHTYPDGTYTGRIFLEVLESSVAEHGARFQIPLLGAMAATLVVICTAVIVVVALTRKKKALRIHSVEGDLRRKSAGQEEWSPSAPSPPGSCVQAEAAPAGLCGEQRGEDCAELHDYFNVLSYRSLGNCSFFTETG
Procedure: The RO assay is depicted in FIG. 3A and FIG. 3B.
The RO of domvanalimab on select peripheral lymphocyte populations in whole blood collected from patients enrolled in a clinical study was assessed by flow cytometry using pre- and post-dose whole blood samples. […] RO was determined on various immune cell types using antibodies specific for surface markers CD3, CD4, CD8, CD56, FoxP3, and Ki67. RO was calculated as follows: […]

[5] = test system: CD4+ T cells, CD8+ T cells, and Tregs; assay: Peripheral T cell absolute counts and frequencies (Trucount, flow cytometry); type: in vivo, human; details: humans
Procedure: White blood cell counts for 11 patients have been followed for up to 85 days of treatment. See Table 17 for additional patient details. Cell counts were assessed in pre- and post-dose whole blood patient samples using commercially available Trucount tubes (BD Biosciences). CD45, CD3, CD4, CD8, CD25, and CD127 antibodies were used to detect peripheral blood T cells and Tregs using flow cytometry. The antibody cocktail and […] of whole blood was added to Trucount tubes, vortexed, and incubated for 15 minutes at room temperature. The stained whole blood was lysed using 900µl of 1×BD FACs Lyse solution followed by vortexing, and incubation for 15 minutes at room temperature. Absolute counts were calculated as detailed in the Trucount technical data sheet. Briefly, the absolute count of a cell population (A) was obtained by dividing the number of positive cells events (X) by the number of bead events (Y), and then multiplying by the BD Trucount bead concentration (N/V, where N is the number of beads per test and V is the test volume). A=X/Y×N/V. Absolute cell count was then reported per μl of whole blood (WB).
Absolute cell counts were not measured in all patients due to limited sample collection. […] Frequencies of different populations were determined relative to a parent population and each timepoint was normalized to baseline (C1D1 predose) to compute fold change.

[6] = efficacy population, later cutoff
[7] = monotherapy cohort (N=10), initial cutoff
[8] = monotherapy cohort (N=10), Grade 1

Sequence of human FcγR1 (P12314 16-374): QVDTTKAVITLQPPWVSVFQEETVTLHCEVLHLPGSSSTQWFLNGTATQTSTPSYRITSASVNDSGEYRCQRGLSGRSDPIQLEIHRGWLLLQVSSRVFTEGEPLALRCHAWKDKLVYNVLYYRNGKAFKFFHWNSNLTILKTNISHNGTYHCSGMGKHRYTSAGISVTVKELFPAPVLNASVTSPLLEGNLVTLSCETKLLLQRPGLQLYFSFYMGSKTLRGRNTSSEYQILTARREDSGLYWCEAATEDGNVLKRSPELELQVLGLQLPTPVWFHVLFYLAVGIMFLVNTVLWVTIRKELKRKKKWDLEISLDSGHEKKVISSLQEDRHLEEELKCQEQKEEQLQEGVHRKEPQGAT

zimberelimab: antagonistic PD-1 antibody, immune checkpoint inhibitor
patients with partial response remaining on treatment ([1]; ITT-13, cutoff Aug. 31, 2022): 5 n | patients with stable disease remaining on treatment ([1]; ITT-13, cutoff Aug. 31, 2022): 3 n | 6-month progression-free survival rate ([1]; Kaplan Meier, ITT-13): 43% | median PFS ([1]; Kaplan Meier, ITT-13): 5.4 months | 6-mo PFS % (95% CI) [1, 6]: 43 (27, 59) % | CORR (confirmed Objective Response Rate, per RECIST v1.1) [1, 6]: 12 (27) n (%) | Complete Response [1, 6]: 0 (0) n (%) | Not Evaluable [1, 6]: 7 (16) n (%) | Partial Response [1, 6]: 12 (27) n (%) | Progressive Disease [1, 6]: 11 (25) n (%) | Stable Disease [1, 6]: 14 (32) n (%) | median PFS [1, 6]: 5.4 mo

B1: domvanalimab: anti-TIGIT antibody with engineered IgG1 Fc, reduced FcγR binding; heavy chain SEQ ID NO: 12, light chain SEQ ID NO: 13 (antibody)
heavy: EVQLVESGGGLVQPGGSLRLSCAASGFTFSNFGMHWVRQAPGKGLEWVAFISSGSSSIYYADTVKGRFTISRDNAKNSLYLQMNSLRAEDTAVYYCARMRLDYYAMDYWGQGTMVTVSSASTKGPSVFPLAPSSKSTSGGTAALGCLVKDYFPEPVTVSWNSGALTSGVHTFPAVLQSSGLYSLSSVVTVPSSSLGTQTYICNVNHKPSNTKVDKKVEPKSCDKTHTCPPCPAPEAAGGPSVFLFPPKPKDTLMISRTPEVTCWVDVSHEDPEVKFNWYVDGVEVHNAKTKPREEQYNSTYRWSVLTVLHQDWLNGKEYKCKVSNKALPAPIEKTISKAKGQPREPQVYTLPPSRDELTKNQVSLTCLVKGFYPSDIAVEWESNGQPENNYKTTPPVLDSDGSFFLYSKLTVDKSRWQQGNVFSCSVMHEALHNHYTQKSLSLSPGK
light: DIQMTQSPSSLSASVGDRVTITCRASKSISKYLAWYQQKPGKAPKLLIYSGSTLQSGVPSRFSGSGSGTDFTLTISSLQPEDFATYYCQQHNEYPWTFGGGTKVEIKRTVAAPSVFIFPPSDEQLKSGTASWCLLNNFYPREAKVQWKVDNALQSGNSQESVTEQDSKDSTYSLSSTLTLSKADYEKHKVYACEVTHQGLSSPVTKSFNRGEC
binding to human FcγR1 [2]: no significant binding; also recorded: does not bind | terminal half-life ([3]; estimated based on the population PK model): 19.9 days | volume of distribution ([3]; population PK model): approximated plasma volume | dose linearity of PK ([3]; population PK model, 0.5-20 mg/kg, Q2W, Q3W, Q4W): dose-linear | RO across all dose groups ([4]; 24 participants, 0.5-20 mg/kg Q2W/Q3W/Q4W, all post-dose time points): maximal RO | TIGIT receptor occupancy (RO) ([4]; Q2W, monotherapy and combination cohorts, all cell types, 1 hour after end of infusion of first dose): ≥ 98% | RO at later time points ([4]; Q2W, pre-dose Day 15, 29, 57, 85): complete RO was maintained | depletion of peripheral T cells [5]: does not deplete | SAE decreased appetite (monotherapy cohort (N=10)): 10% | SAE dyspnea (monotherapy cohort (N=10)): 10% | SAE hyponatremia (monotherapy cohort (N=10)): 10% | SAE peritonitis bacterial (monotherapy cohort (N=10)): 10% | SAE pleural effusion (monotherapy cohort (N=10)): 10% | discontinued domvanalimab due to a TEAE (monotherapy cohort (N=10)): 30% | dose delays/interruptions due to a TEAE (monotherapy cohort (N=10)): 10% | SAEs considered related to domvanalimab [7]: none | TEAE dyspnea regardless of causality [7]: 30% | all other TEAEs, each [7]: ≤ 10% | participants with SAEs [7]: 40% | participants with at least 1 TEAE [7]: 100% | participants with domvanalimab-related TEAEs [7]: 30% | total number of SAEs [7]: 5 | domvanalimab-related TEAE fatigue [8]: 10% | domvanalimab-related TEAE hyperglycemia [8]: 10% | domvanalimab-related TEAE nausea [8]: 10% | domvanalimab-related TEAE pruritus [8]: 10% | deaths due to treatment-related AEs (whole study, initial cutoff): No deaths
